These results are taken from patent US20240043534A1.

This test addresses Fab with CK (kappa) light chain constant domain. Nature of the test: ELISA.

With “wild type Protein G (wild-type non-modified protein G polypeptide)”, the fold lower EC50 for CK than for Cλ was 7 fold.
